In experiment [1] the target is T1, purified human FAP antigen (human, UniProt Q12884 26-760, limits assumed). In words: ELISA, plate coated with purified human FAP antigen (FIG. 56A-56C). On the procedure:
(§1) Binding kinetics of the novel antigen binding constructs to a purified human FAP antigen was assessed using ELISA. For this assay, a 96 well ELISA plate was coated with the human-FAP antigen diluted to a concentration of 2 mg/mL in coating buffer (0.05M sodium carbonate-bicarbonate buffer, pH 9.6). 100 μl of this coating solution was added to each well in the plate and incubate at 4° C. overnight. The plate was washed 3 times with 300 μl per well of washing buffer (PBS with 0.05% Tween-20). After the last wash, the plate was blocked by adding to each well 200 μl of blocking buffer (PBS with 1% BSA) warmed to room temperature. The plate was then incubated at room temperature for 1 hour under gentle agitation. After blocking, the plate was washed 3 times with 300 μl per well of washing buffer. Dilution samples for each minibody were created by making 2.5× dilutions from a starting sample at 100 ng/mL, or 250 ng/mL, or 1000 ng/mL or 3000 ng/mL in 100 μL sample buffer (PBS with 1% BSA). The dilution samples were transferred to the assay plate and incubated at room temperature for 1 hour under gentle agitation. The plate was then washed 3 times with 300 μl per well of washing buffer.
(§2) Detection was performed by adding 100 μl of HRP labeled detection secondary antibody at an appropriate dilution and incubating the plate at room temperature for 1 hour under gentle agitation. The plate was then washed 3 times with 300 μl per well of washing buffer. For color development, 100 μl of TMB substrate regent, pre-warmed to room temperature, was added to the plate and incubated in the dark at room temperature for 15 min. The reaction was then stopped by adding 100 μl of 650 nm stop solution to the plate and mixed for 1 min at room temperature under gentle agitation. The plate is recorded by reading OD at 650 nm in a plate reader within 20 min after terminating the reaction.

The target of another experiment is FAP (UniProt Q12884 26-760, limits assumed). Description: binding kinetics, method not stated (FIG. 42B).
The target of experiment [2] is T2, purified murine FAP antigen (murine, UniProt P97321 26-761, limits assumed). Description: ELISA, cross-reactivity (FIG. 57B). On the technique in general: An ELISA detects its analyte on a solid surface through an enzyme-linked reagent.
T2 sequence (P97321 26-761 limits assumed): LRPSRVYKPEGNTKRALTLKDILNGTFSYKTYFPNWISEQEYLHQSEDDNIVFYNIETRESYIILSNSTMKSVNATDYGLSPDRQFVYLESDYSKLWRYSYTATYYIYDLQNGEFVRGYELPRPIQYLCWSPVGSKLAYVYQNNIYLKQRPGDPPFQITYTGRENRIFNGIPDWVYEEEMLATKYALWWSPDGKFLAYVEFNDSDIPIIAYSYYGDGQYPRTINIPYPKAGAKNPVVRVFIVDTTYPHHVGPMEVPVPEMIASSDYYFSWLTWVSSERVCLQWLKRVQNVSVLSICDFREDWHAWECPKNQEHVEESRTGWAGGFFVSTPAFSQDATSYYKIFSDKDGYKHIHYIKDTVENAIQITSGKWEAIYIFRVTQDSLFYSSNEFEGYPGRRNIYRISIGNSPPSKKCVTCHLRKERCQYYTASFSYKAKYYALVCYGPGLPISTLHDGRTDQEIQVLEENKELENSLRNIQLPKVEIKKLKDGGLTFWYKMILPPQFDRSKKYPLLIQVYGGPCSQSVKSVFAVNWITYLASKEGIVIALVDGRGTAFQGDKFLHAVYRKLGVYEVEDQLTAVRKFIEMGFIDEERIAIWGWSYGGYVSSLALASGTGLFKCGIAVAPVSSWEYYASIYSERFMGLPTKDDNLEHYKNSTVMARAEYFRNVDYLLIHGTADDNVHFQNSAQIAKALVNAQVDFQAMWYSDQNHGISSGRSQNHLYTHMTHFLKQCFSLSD
Experiment [3] deals with T2, purified murine FAP antigen. In words: ELISA, cross-reactivity (FIG. 92).
Experiment [4] concerns the target T1, purified human FAP antigen. Description: ELISA, plate coated with purified human FAP antigen (FIG. 91B). On the procedure: as §1
The target of experiment [5] is T1, purified human FAP antigen. In words: ELISA, plate coated with purified human FAP antigen (FIG. 91E). On the procedure: as §1
Experiment [6] addresses T1, purified human FAP antigen. Description: ELISA, plate coated with purified human FAP antigen (FIG. 56F-56G). On the procedure: as §1, §2
The target in experiment [7] is T2, purified murine FAP antigen. Description: ELISA, cross-reactivity (FIG. 57A).

B1: IAB16M2-37 (other)
chain: QVQLVQSGAEVKKPGASVKVSCKASGYTFTEYTIHWVRQAPGQRLEWIGGINPNNGIPNYNQKFKGRVTITVDTSASTAYMELSSLRSEDTAVYYCARRRIAYGYDEGHAMDYWGQGTLVTVSSGSTSGGGSGGGSGGGGSSDIVMTQSPDSLAVSLGERATINCKSSQSLLYSRNQKNYLAWYQQKPGQPPKLLIFWASTRESGVPDRFSGSGSGTDFTLTISRLEPEDFAVYYCQQYYSYPLTFGQGTKVEIKEPKSSDKTHTCPPCPPCGGGSSGGGSGGQPREPQVYTLPPSREEMTKNQVSLTCLVKGFYPSDIAVEWESNGQPENNYKTTPPVLDSDGSFFLYSKLTVDKSRWQQGNVFSCSVMHEALHNHYTQKSLSLSPG
notes: also called IAB16B2-37
With B1, in experiment [1], the Kd (commonly the equilibrium constant for the complex coming apart) is around 0.1 nM. In the experiment with FAP, binding was put at a Kd of 1.15 nM; the koff (in general, the rate constant with which the complex falls apart) worked out at 0.00108 s⁻¹; the kon (as a rule, the second-order rate constant of association) amounted to 935000 M⁻¹ s⁻¹. The “fold change of KD, murine FAP against human FAP” value in experiment [2] is around 10 fold.

B2: IAB16M2-43 (other)
chain: QVQLQESGPGLVKPSETLSLTCTVSGFSLTNYDINWIRQPPGKGLEWIGLIWTGGGTNYNPSLKSRVTISKDTSKNQFSLKLSSVTAADTAVYYCVRGGPLVWYALDYWGQGTLVTVSSGSTSGGGSGGGSGGGGSSDIQMTQSPSSLSASVGDRVTITCKASQDVSTAVAWYQQKPGKAPKLLIYSASYRYTGVPSRFSGSGSGTDFTFTISSLQPEDIATYYCQQHYSNPRTFGGGTKVEIKEPKSSDKTHTCPPCPPCGGGSSGGGSGGQPREPQVYTLPPSREEMTKNQVSLTCLVKGFYPSDIAVEWESNGQPENNYKTTPPVLDSDGSFFLYSKLTVDKSRWQQGNVFSCSVMHEALHNHYTQKSLSLSPG
On to B2, for which the binding result in experiment [3] is on record as “binds”. This molecule also displayed a Kd in experiment [4] of around 0.1 nM.

B3: IAB16M2-53 (other)
chain: QVQLQESGPGLVKPSETLSLTCTVSGFSLTNYDINWIRQPPGKGLEWIGLIWTGGGTNYNPSLKSRVTISKDTSKSQFSLKLSSVTAADTAVYYCVRGGPLVWYALDYWGQGTLVTVSSGSTSGGGSGGGSGGGGSSDIQMTQSPSSLSASVGDRVTITCKASQDVSTAVAWYQQKPGKAPKLLIYSASYRYTGVPSRFSGSGSGTDFTFTISSLQPEDIATYYCQQHYSNPRTFGGGTKVEIKEPKSSDKTHTCPPCPPCGGGSSGGGSGGQPREPQVYTLPPSREEMTKNQVSLTCLVKGFYPSDIAVEWESNGQPENNYKTTPPVLDSDGSFFLYSKLTVDKSRWQQGNVFSCSVMHEALHNHYTQKSLSLSPG
With B3, the Kd in experiment [5] was around 0.1 nM.

B4: IAB16C3-26 (other)
chain: EIVLTQSPGTLSLSPGERATLSCRASQSVSRSYLAWYQQKPGQAPRLLIIGASTRATGIPDRFSGSGSGTDFTLTISRLEPEDFAVYYCQQGQVIPPTFGQGTKVEIKGGGSGGGGEVQLLESGGGLVQPGGSLRLSCAASGFTFSSHAMSWVRQAPGKGLEWVSAIWASGEQYYADSVKGRFTISRDNSKNTLYLQMNSLRAEDTAVYYCAKGWLGNFDYWGQGTLVTVSSGGCPPCPPC
As to B4, the Kd in experiment [6] is around 1 nM. Moreover, the binding result in experiment [7] is recorded as “binds”.

(Values after patent publication US20240390531A1 (IMAGINAB, published 2024).)
